In patent publication CN117567612A (CHINA RESOURCES BIOMEDICAL CO LTD, dated 2024):

B1: IMAB362 (antibody, V domains shown)
VH: QVQLQQPGAELVRPGASVKLSCKASGYTFTSYWINWVKQRPGQGLEWIGNIYPSDSYTNYNQKFKDKATLTVDKSSSTAYMQLSSPTSEDSAVYYCTRSWRGNSFDYWGQGTTLTVSS
VL: DIVMTQSPSSLTVTAGEKVTMSCKSSQSLLNSGNQKNYLTWYQQKPGQPPKLLIYWASTRESGVPDRFTGSGSGTDFTLTISSVQAEDLAVYYCQNDYSYPFTFGSGTKLEIKR
B2: CLDN-BC-P1022-hH1 (antibody, V domains shown)
VH: QVQLVQSGGGLVQPGGSLRLSCAASGFTFSSYEMNWVRQAPGKGLEWVAYITGSGRTMYYADSVKGRITISRDNAKNSLYLQMNSLRAEDTAVYYCARYWNYAGGMDVWGQGTLVTVSS
VL: DIQMTQSPSSVSASVGDRVTITCRASQGISSWLAWYQQKPGKAPKLLIYAASSLQSGVPSRFSGSGSGTDFTLTISSLQPEDFATYYCQQANSFPLTFGGGTKVEIK
notes: detected with anti-human IgG Fc); P1022 is the only antibody of the application; also called CLN-P1022-hH1; 全人源抗体P1022

Tests used:
CLDN18.2 [1] = molecular target: T1, CLDN18.2; test: kinetics, method not stated
T1 construct: For the EC50 it stood on overexpressing cells; also called claudin18.2; CLDN18.2过表达细胞

CLDN18.2 [2] = molecular target: T1, CLDN18.2; test: flow cytometry on CLDN18.2-overexpressing cells, MFI fitted in GraphPad Prism

| Binder | Kd (CLDN18.2 [1]) | koff (CLDN18.2 [1]) | kon (CLDN18.2 [1]) | EC50 (CLDN18.2 [2]) |
| --- | --- | --- | --- | --- |
| B1 | 4.17 nM | 0.00158 s⁻¹ | 378000 M⁻¹ s⁻¹ | 1.75 µg/mL |
| B2 | – | – | – | 0.12 µg/mL |
